These results are taken from the RNAGym collection of RNA variant scans (doi:10.1073/pnas.2313332121).

B1: TPR t1 (parent)
chain: GACCAAUCUGCCCUCAGAGCUCGAGAACAUCUUCGGAUGCAGAGGAGGCAGGCUUCGGUGGCGCGAUAGCGCCAACGUCCUCAACCUCCAAUGCAUCCCACCACAUGAUGAUGCCUGAAGAGCCUUGGUUUUUUG

Variants of B1 are the subject of this data set. In words: polymerase ribozyme fitness, log enrichment relative to wild type (log ratio); higher = more active; in vitro selection for triplet polymerase activity. In a few lines: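 Mutant libraries were PCR-built and transcribed for each subunit of a heterodimeric triplet polymerase ribozyme and selected for one round in triplicate at −7 °C, frozen, before gel excision of extended constructs and streptavidin-bead capture. Input and output libraries were Illumina-sequenced, keeping genotypes with ≥10 input reads and ≥1 read per output. Fitness is a logarithmic ratio of genotype to wild-type enrichment, in base 2, using inverse-variance-weighted replicate averages.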
Consider C20U C53U U54A U125G, for which the “polymerase ribozyme fitness (log ratio)” value is -2.55.

Take C72A C123A: the “polymerase ribozyme fitness (log ratio)” value came out at 0.479.

Take U87A C99A C115G G122U C124G: the “polymerase ribozyme fitness (log ratio)” value is -7.12.

In the case of C11G G42C C53A, the “polymerase ribozyme fitness (log ratio)” value is -1.03.

For C73A C102U U125G, the “polymerase ribozyme fitness (log ratio)” value is -2.45.

Regarding A27C G71A U116C, the “polymerase ribozyme fitness (log ratio)” value was -4.74.

On to C89U U133G, for which the “polymerase ribozyme fitness (log ratio)” value was -0.403.

Regarding C22A G60C, the “polymerase ribozyme fitness (log ratio)” value is -5.44.

Regarding C4A C13U A26U G44U C49A C104U, the “polymerase ribozyme fitness (log ratio)” value is -6.34.

In the case of C3U C72U C98A, the “polymerase ribozyme fitness (log ratio)” value was -5.34.

Turning to C56G U116C, the “polymerase ribozyme fitness (log ratio)” value was -0.924.

With G45U C70A C115A G128U, the “polymerase ribozyme fitness (log ratio)” value was -3.65.

C4U C13U G19U A95G: the “polymerase ribozyme fitness (log ratio)” value was -2.99.

In the case of G47U C56U, the “polymerase ribozyme fitness (log ratio)” value was -1.38.

For G42C C62U U131C, the “polymerase ribozyme fitness (log ratio)” value was -1.44.

As for A27U U133A, the “polymerase ribozyme fitness (log ratio)” value was -3.33.

In the case of C53U C56U C89A G120A, the “polymerase ribozyme fitness (log ratio)” value was -1.49.

As for U9G G63C, the “polymerase ribozyme fitness (log ratio)” value is -0.0322.

U9G C20U U87G: the “polymerase ribozyme fitness (log ratio)” value was -0.825.

On to A41U C53A G58A, for which the “polymerase ribozyme fitness (log ratio)” value is -1.32.

Turning to C22A G69U, the “polymerase ribozyme fitness (log ratio)” value is -3.88.

For the variant C4G C56G C64U, the “polymerase ribozyme fitness (log ratio)” value was -3.26.

C88G U96A: the “polymerase ribozyme fitness (log ratio)” value was -2.61.

As to C40G C86U C101A, the “polymerase ribozyme fitness (log ratio)” value was -2.66.

Turning to C8G C79G G117U, the “polymerase ribozyme fitness (log ratio)” value is -1.37.

Turning to G39U C123A, the “polymerase ribozyme fitness (log ratio)” value is -0.855.

In the case of C70G C114U, the “polymerase ribozyme fitness (log ratio)” value is -4.81.

Regarding A37C G93A, the “polymerase ribozyme fitness (log ratio)” value is -0.971.

As for C11G G42C G69U A111C, the “polymerase ribozyme fitness (log ratio)” value is -0.0543.

In the case of G10U C12A G60A, the “polymerase ribozyme fitness (log ratio)” value is -0.594.

For A100U U116C, the “polymerase ribozyme fitness (log ratio)” value is -2.35.

Turning to G17A A18C C62G G120C, the “polymerase ribozyme fitness (log ratio)” value was -4.41.

For the variant C12U A103U, the “polymerase ribozyme fitness (log ratio)” value is -4.81.

As to G10A G52A G60A C79A C115A, the “polymerase ribozyme fitness (log ratio)” value is -2.07.

With U14C U112G G113U, the “polymerase ribozyme fitness (log ratio)” value is -5.07.

Regarding C4U A6U G45A C80U C101A, the “polymerase ribozyme fitness (log ratio)” value was -3.66.

In the case of C64A G120C, the “polymerase ribozyme fitness (log ratio)” value was -3.88.

On to G10C U92C G113U, for which the “polymerase ribozyme fitness (log ratio)” value was -4.69.

For A41U G48C A83C C88G, the “polymerase ribozyme fitness (log ratio)” value is -4.38.

In the case of G19C C40U G93U C114G G122A, the “polymerase ribozyme fitness (log ratio)” value is -0.927.

On to G47C C88A C124A, for which the “polymerase ribozyme fitness (log ratio)” value is -0.557.

With G10C A16G A26U C72U C98U C115G, the “polymerase ribozyme fitness (log ratio)” value is -6.74.

As for G60C C99U G117A U133G, the “polymerase ribozyme fitness (log ratio)” value was -6.01.

A118U G127C: the “polymerase ribozyme fitness (log ratio)” value is -1.35.

A66C U112C A119C: the “polymerase ribozyme fitness (log ratio)” value is -1.53.

With U78A U109C, the “polymerase ribozyme fitness (log ratio)” value was -4.47.

Take G113U A119G: the “polymerase ribozyme fitness (log ratio)” value was -1.66.

As for G36C G65U C72U G107A G117C G128A U133A, the “polymerase ribozyme fitness (log ratio)” value was -7.08.

With U21C U55C G63U A105U, the “polymerase ribozyme fitness (log ratio)” value was -4.84.

Turning to A37G U87C A95G A100U U130A, the “polymerase ribozyme fitness (log ratio)” value was -3.04.

A37U C72A C98A C123G: the “polymerase ribozyme fitness (log ratio)” value was -5.43.

In the case of C8A A91G C98U, the “polymerase ribozyme fitness (log ratio)” value was -1.37.

Turning to C89A A119U, the “polymerase ribozyme fitness (log ratio)” value is -1.88.

Take G44A C88A: the “polymerase ribozyme fitness (log ratio)” value is -1.02.

Consider U59A U87A G113U A118G, for which the “polymerase ribozyme fitness (log ratio)” value is -4.7.

In the case of A2G C64U C89G U112A, the “polymerase ribozyme fitness (log ratio)” value was -1.2.

A91C C114U: the “polymerase ribozyme fitness (log ratio)” value was -3.62.

For the variant C11A A26G G71C C101A C114U, the “polymerase ribozyme fitness (log ratio)” value is -6.79.

Consider G52A G60C G61A, for which the “polymerase ribozyme fitness (log ratio)” value is -4.56.

With A5U A18U C94G A105G C123G, the “polymerase ribozyme fitness (log ratio)” value is -6.51.

As to C15U U21C C49G G117A, the “polymerase ribozyme fitness (log ratio)” value was determined as 0.389.

For the variant C15A A46C, the “polymerase ribozyme fitness (log ratio)” value is -3.02.

Take C73G C97G C114A A121G: the “polymerase ribozyme fitness (log ratio)” value is -5.74.

Take G52A G122A C124U: the “polymerase ribozyme fitness (log ratio)” value was 0.227.

As for C15G U132C, the “polymerase ribozyme fitness (log ratio)” value is -2.23.

As for A5U A37G C72U, the “polymerase ribozyme fitness (log ratio)” value is -0.735.

For C8G G48U G61U G93U U112A C124A, the “polymerase ribozyme fitness (log ratio)” value was -0.568.

As for G113A U126G, the “polymerase ribozyme fitness (log ratio)” value was -3.39.

With G10U G61A C123A U126G, the “polymerase ribozyme fitness (log ratio)” value was -1.39.

Regarding C40A C73U, the “polymerase ribozyme fitness (log ratio)” value is -1.17.

In the case of G51U G117A, the “polymerase ribozyme fitness (log ratio)” value was -5.11.

In the case of C13U G42U G61A A90U A95U, the “polymerase ribozyme fitness (log ratio)” value is -1.48.

For G61U C86A C115U, the “polymerase ribozyme fitness (log ratio)” value is -1.4.

With C12U C72U U96A C115U, the “polymerase ribozyme fitness (log ratio)” value was -1.92.

For C82U U96A U109C, the “polymerase ribozyme fitness (log ratio)” value was -5.99.

On to C40A C72A, for which the “polymerase ribozyme fitness (log ratio)” value is -0.912.

For U7A U38G C49A, the “polymerase ribozyme fitness (log ratio)” value is -0.102.

For C70A C102U, the “polymerase ribozyme fitness (log ratio)” value is -4.59.

Take C8U C13U A103C C115A A119G: the “polymerase ribozyme fitness (log ratio)” value was -2.38.

Take C79U C89A C115A: the “polymerase ribozyme fitness (log ratio)” value was -0.609.

For C11U G63A C72A, the “polymerase ribozyme fitness (log ratio)” value is -7.14.

With A27G G52A C56U, the “polymerase ribozyme fitness (log ratio)” value was -2.59.

As to C12U C56G, the “polymerase ribozyme fitness (log ratio)” value is -0.12.
